The values that follow come from US20240301048A1 (LANIER BIOTHERAPEUTICS, published 2024).

Assay [1] addresses T1, recombinant human IL-17A (R&D Systems) (human, UniProt Q16552 24-155).
T1 construct: Bought recombinant protein; also called rhIL17A
The assay can be described thus: SPR, Biacore T-100; antibody immobilized on CM5 chip, rhIL17A 2.5-40 nM as analyte, single cycle kinetics. As for the experimental part: The surface was regenerated with a 30 second exposure of 10 mM Glycine-HCL pH 1.5. Single cycle kinetic analysis was performed on each antibody with the reference cell subtracted.

In assay [2] the target is T1, recombinant human IL-17A (R&D Systems). Briefly: cell-based or functional assay.
Assay [3] has the same target. Briefly: cell-based or functional assay. The source holds these as a separate data set.
Assay [4] shares this target. The assay can be described thus: cell-based or functional assay. The source holds these as a separate data set.

T1 sequence (Q16552 24-155 limits assumed): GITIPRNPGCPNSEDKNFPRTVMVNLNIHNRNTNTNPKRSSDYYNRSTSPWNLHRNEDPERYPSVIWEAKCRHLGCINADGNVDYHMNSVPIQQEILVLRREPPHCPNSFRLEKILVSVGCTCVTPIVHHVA

B1: Ixekizumab (antibody, V domains shown)
VH: QVQLVQSGAEVKKPGSSVKVSCKASGYSFTDYHIHWVRQAPGQGLEWMGVINPMYGTTDYNQRFKGRVTITADESTSTAYMELSSLRSEDTAVYYCARYDYFTGTGVYWGQGTLVTVSS
VL: DIVMTQTPLSLSVTPGQPASISCRSSRSLVHSRGNTYLHWYLQKPGQSPQLLIYKVSNRFIGVPDRFSGSGSGTDFTLKISRVEAEDVGVYYCSQSTHLPFTFGQGTKLEIKR
On to B1, for which, in assay [1], the Kd amounted to 0.0069 nM, the koff turned out to be 1.39e-05 s⁻¹ and the kon amounted to 2.01e+06 M⁻¹ s⁻¹. Moreover, the “IC50 (read off the curve), IL-6 in 3T3 cells” value in assay [2] is roughly 0.2 µg/mL. Further, the “IC50 (read off the curve), CXCL1 in HT29 cells” value in assay [3] is roughly 0.1 µg/mL. For the same molecule, the “IL-17A Bioassay Potency (IC50, nM)” value in assay [4] was determined as 0.39 nM.

B2: ABM67 (antibody, V domains shown)
VH: EVKLVESGGGLVKPGGSLKLSCAASGFTFSSYAMSWVRQTPEKRLEWVATISSGGSYTYYPDSVKGRFTISRDNAKNTLYLQMSSLRSEDTAMYYCARQNWDAFVYWGQGTLVTASA
VL: DIVLTQSPAILSVSPGERVSFSCRAGQSIGTSIHWYQRRTNGSPRLLIKSASESISGIPSRFSGSGSGTDFTLSINSVESEDIADYYCQQSNSWPLTFGAGTKLEIKR
On to B2, for which, in assay [1], the Kd is 0.169 nM, the koff came to 0.000121 s⁻¹ and the kon is 713000 M⁻¹ s⁻¹.

B3: ABM64 (antibody, V domains shown)
VH: QVHVKQSGPELVRPGVSVKISCKGSGYTFTDYAMHWVKQSHAKSLEWIGVISTYSGNTNYNQKFKGKATMTVDKSSSTAYMELARLTSEDSAIYYCARGNYGSDWGQGTLVTVSA
VL: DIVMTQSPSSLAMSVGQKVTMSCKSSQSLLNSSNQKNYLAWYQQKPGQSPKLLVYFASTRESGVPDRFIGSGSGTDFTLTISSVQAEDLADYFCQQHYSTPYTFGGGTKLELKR
Consider B3, for which, in assay [1], the Kd worked out at 0.248 nM, the koff was determined as 0.000311 s⁻¹ and the kon came out at 1.25e+06 M⁻¹ s⁻¹.

B4: ABM60 (antibody, V domains shown)
VH: EVHLKESGPDLVAPSQSLSITCTVSGFSLTTYGVHWVRQPPGKGLEWLVVIWSDGLTTYNSALKSRLSISKDNSKSQVFLKMNSLRTDDTAMYYCARDYTYEYAMDYWGQGTTVTVSS
VL: DILLTQSPLSLPVSLGDQASISCRSSQSLVHSNGNTYLHWYLQKPGQSPKLLIYKVSNRFSGVPDRFSGSESGTDFTLKISRVEAEDLGVYFCSQSTHVPFTFGSGTKLEIKR
B4: in assay [1], the Kd is 0.24 nM, the koff was found to be 5.65e-05 s⁻¹ and the kon turned out to be 278000 M⁻¹ s⁻¹. Besides, the “IC50 (read off the curve), IL-6 in 3T3 cells” value in assay [2] is roughly 0.8 µg/mL.

B5: ABM59 (antibody, V domains shown)
VH: EVKLVESGGGLVKPGGSLKLSCAASGFAFSSYDMSWVRQTPEKRLEWVAYISSGGGNTYYPDTVKGRFTISRDNAKNTLYLQMSSLKSEDTAMYYCAREALTMISTRDYYAMDYWGQGTSVTVSS
VL: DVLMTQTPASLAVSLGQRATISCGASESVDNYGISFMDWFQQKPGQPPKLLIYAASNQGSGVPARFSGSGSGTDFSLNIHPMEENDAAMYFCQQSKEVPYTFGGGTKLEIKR
On to B5, for which, in assay [1], the dissociation constant (Kd) amounted to 0.506 nM, the koff amounted to 0.00057 s⁻¹ and the kon came to 1.13e+06 M⁻¹ s⁻¹.
